Test results taken from patent US20090215115A1, “SIALYLTR[…] SEQUENCE MOTIFS” (National Research Council of Canada, priority 2004, published 2009).

B1: Cst-I O:19: α-2,3-sialyltransferase Cst-I from Campylobacter jejuni strain O:19, amino acid sequence of FIG. 3, SEQ ID NO:8 (protein, listed as Campylobacter jejuni)
chain: MTRTRMENELIVSKNMQNIIIAGNGPSLKNINYKRLPREYDVFRCNQFYFEDKYYLGKKIKAVFFNPGVFLQQYHTAKQLILKNEYEIKNIFCSTFNLPFIESNDFLHQFYNFFPDAKLGYEVIENLKEFYAYIKYNEIYFNKRITSGVYMCAIAIALGYKTIYLCGIDFYEGDVIYPFEAMSTNIKTIFPGIKDFKPSNCHSKEYDIEALKLLKSIYKVNIYALCDDSILANHFPLSININNNFTLENKHNNSINDILLTDNTPGVSFYKNQLKADNKIMLNFYNILHSKDTLIKFLNKEIAVLKKQTTQRAKARIQNHLSYKLGQALIINSKSVLGFLSLPFIILSIVISHKQEQKAYKFKVKKNPNLALPPLETYPDYNEALKEKECFTYKLGEEFIKAGKNWYGEGYIKFIFKDVPRLKREFEKGE
modifications: sialyltransferase polypeptide sequence from strain O19
B2: Cst-I O:36: α-2,3-sialyltransferase Cst-I from Campylobacter jejuni strain O:36, amino acid sequence of FIG. 2, SEQ ID NO:6 (protein, listed as Campylobacter jejuni)
chain: MTRTRMENELIVSKNMQNIIIAGNGPSLKNINYKRLPREYDVFRCNQFYFEDKYYLGKKIKAVFFNPGVFLQQYHTAKQLILKNEYEIKNIFCSTFNLSFIESNDFLHQFYNFFPDAKLGYEVIENLKEFYAYIKYNEIYFNKRITSGVYMCAIAIALGYKTIYLCGIDFYEGDVIYPFEAMSTNIKTIFPGIKDFKPSNCHSKEYDIEALKLLKSIYKVNIYALCDDSILANHFPLSININNNFTLENKHNNSINDILLTDNTPGVSFYKNQLKADNKIMLDFYNILHSKDNLIKFLNKEIAVLKKQTTQRAKTRIQNHLSYKLGQALIINSKSVLGYLSLPFIILSIVISHKQEQKAYKFKVKKNPNLALPPLETYPDYKEALKEKECFTYKLGEEFIKASKNWYGGGYIKFYFKDVSRLKREIKEK
modifications: sialyltransferase polypeptide sequence from strain O36

Test: α-2,3-sialyltransferase activity assay with capillary electrophoresis detection
Type: biochemical
Conditions: lysates of E. coli expressing the Cst-I protein; for sialyltransferase activity: acceptor 1 mM Lac-FCHASE, donor 0.2 mM CMP-Neu5Ac, 37° C., pH 7
Protocol: Assays. Protein concentration was determined using the bicinchoninic acid protein assay kit (Pierce, Rockford, Ill.). For all of the enzymatic assays, one unit of activity was defined as the amount of enzyme that generated one […] of product per minute. FCHASE-labelled oligosaccharides are prepared as described in Gilbert et al. (1997) Eur. J. Biochem. 249: 187-194. p-Nitrophenol-glycosides (p-NP-glycosides) were obtained from Sigma-Aldrich.
The -2,3-sialyltransferase activity was assayed at 37° C. using 1 mM Lac-FCHASE (6-(5-fluorescein-carboxamido)-hexanoic acid succimidyl ester), 0.2 mM CMP-Neu5Ac, 50 mM MOPS pH 7, 10 mM MnCl2 and 10 mM MgCl2 in a final volume of 10 μL. After 5 min the reaction mixtures with fluorogenic acceptors were diluted with 10 mM NaOH and analyzed by capillary electrophoresis performed using the separation conditions as described previously (Gilbert et al. (1997) supra.).

Molecule | transfer of Neu5Ac from CMP-Neu5Ac to an acceptor | sialyltransferase activity [mU/ml]
B1 | catalyze the transfer of Neu5Ac from CMP-Neu5Ac to an acceptor | 324.9
B2 | catalyze the transfer of Neu5Ac from CMP-Neu5Ac to an acceptor | 50.3
